The source of these data is US9005614B2, “PRLR-specific antibody and uses thereof” (Novartis AG, priority 2006, dated 2015).

Changes are numbered by the printed parent chain. Like-named read-outs stand apart in the source and are kept apart here.

One experiment has as its system BaF3/PRLR cells. The experiment is described as follows: In vitro combination of anti-PRLR mAbs and chemotherapeutics, cell survival (CellTiter Glo). The class given is cell-based. The note with it: 5 days. On the procedure:
Cell survival was determined by CellTiter Glo analysis and is reported aS RLU (y-axis).
Due to the possibility that a potential anti-PRLR therapeutic antibody may be administered in conjunction with cytotoxic drug regimens in the clinic, the effects of such combination therapies on cell survival in culture was investigated. […] An array of clinically-relevant and mechanistically diverse cytotoxic agents were utilized in this assay: Doxorubicin (an anthracycline Topo II inhibitor), Taxol (a microtubule stabilizing agent), Fludarabine (an anti-metabolite), and Cisplatin (a platinum-based DNA cross-linking drug).

A further experiment addresses T1, cynomolgus PRLR ECD (Macaca fascicularis, UniProt A0A2K5WXK1).
T1 construct: antibodies against human and cynomolgus PRLR ECD
T1 sequence (A0A2K5WXK1 25-234): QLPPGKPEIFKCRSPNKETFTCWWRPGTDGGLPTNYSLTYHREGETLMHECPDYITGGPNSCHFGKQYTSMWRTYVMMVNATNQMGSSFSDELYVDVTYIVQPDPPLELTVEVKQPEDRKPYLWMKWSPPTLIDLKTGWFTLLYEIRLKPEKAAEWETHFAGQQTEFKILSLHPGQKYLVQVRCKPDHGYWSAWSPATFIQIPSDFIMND
The experiment is described as follows: Biacore kinetic titration, antibody captured on Protein A/G. The class given is binding. The settings on record: Table 9, Cyno PRLR ECD; unit not given. The method, then:
(§1) Affinity of the chimerized and HUMAN ENGINEERED™ antibodies determined by Biacore analysis. Briefly, a CM5 sensor chip (Biacore) immobilized with Protein A/G (Pierce) via NHS/EDC was used to capture approximately 600 RU of antibody on the chip surface. Five concentrations of PRLR ECD beginning at 5 ug/mL (185 nM) and serially diluted at 5× dilution to 0.3 nM were injected from lowest to highest concentration in the kinetic titration injection mode, and 15 minutes of dissociation data was collected. The experiments were double-referenced, i.e. an adjacent flow cell response was subtracted automatically, and the response from a buffer injection experiment was subtracted from the experimental data set. Kinetic and derived parameters (ka, kd and KD) were determined by fitting to a 1:1 Langmuir model using BiaEval software customized to the kinetic titration injection mode. Affinity measurements of both chimeric and all HUMAN ENGINEERED™ antibodies against human and cynomolgus PRLR ECD are summarized in Table 9 and Table 10.

The next experiment has as its target T2, human PRLR ECD (Homo sapiens, UniProt P16471).
T2 construct: His6 (C); made in house; host or cells: Tn5 insect cells, baculovirus
T2 sequence (P16471 25-234): T1 sequence (A0A2K5WXK1 25-234) with V76I, T110A, M125I, T158I, I207T
The description is as above. The note with it: Table 9, Human PRLR ECD; unit not given. It is filed as binding. On the procedure: as §1

Experiment [1] has as its system PRL-induced phospho-PRLR and phospho-Stat5. The experiment is described as follows: PRL-induced PRLR and STAT5 phosphorylation in T47D cells by Western blot. The class given is cell-based, human. On the procedure:
Cells were pre-treated with 1 ug/ml mAb prior to 30 min stimulation with 50 ng/ml PRL. Lysates were analyzed for the presence of phospho-PRLR using antibodies specific for phosphotyrosine residues 546 and 611 of the PRLR.
T47D cells were incubated with 1 or 10 ug/ml mAb, then treated with or without PRL (50 ng/ml) for an additional 30 min.
The ability of selected antibodies to inhibit PRL-induced phosphorylation of STAT5 and AKT was determined as follows. Cells were seeded overnight in 6 well plates at a density of 3×10^5 cells/ml in phenol red-free RPMI/10% FBS. The following day, media was replaced with serum-free RPMI for 30 min. In some experiments, anti-PRLR or non-specific control antibodies were incubated with cells during this serum starvation period. 50 ng/ml PRL was then added to wells for 30 min, after which cells were rinsed once in PBS and lysed in a buffer consisting of 50 mM Tris-HCl, pH7.5, 150 mM NaCl, 1 mM EDTA, 1% NP-40, 1 mM Na3OV4, 50 mM NaF, 0.25% deoxycholate and protease inhibitors. Tubes were spun down at 14,000 rpm in a refrigerated microfuge and lysates were quantitated using BCA reagents. 30 μg of whole cell lysate was separated by 10% SDS-PAGE and proteins were detected using phospho-specific antibodies for STAT5A/B (Y694/Y699, Upstate) or PRLR (Y546/Y611, in-house) and ECL. Equal protein loading was determined by staining with antibodies specific for total STAT5 (BD) or PRLR (Zymed) or AKT (Cell Signalling). Results of a representative assay of effect of a PRLR-specific antibody on PRLR intracellular phosphorylation are shown in FIG. 6.
Chimeric mAbs were analyzed for their ability to inhibit the proliferation and survival of BaF/PRLR cells [FIG. 11]. […] In order to assess the PRLR signal-neutralizing capability of the chimeric antibodies in a human breast cancer model, T47D cells were treated with 1 ug/ml mAb for 30 min prior to PRL stimulation. At the same time, additional cell samples were incubated with antibody alone to examine any potential agonism gained through chimerization of the antibody candidates.
Antibodies were assessed in target modulation and cell proliferation assays. FIG. 16 depicts the effect of 2 concentrations of chXHA.06.642 and HUMAN ENGINEERED™ antibodies he.06.642-1 and he.06.642-2, on PRL-induced Stat5 phosphorylation in T47D cells. […] Similar results were found for chXHA.06.275 variants.

[2] abbreviates: Mus musculus, 120 h, co-administered anti-KLH control Ab 1 ug/ml, read-out: chemotherapeutic IC50 with KLH (1 ug/ml).
Setting [3] is: Mus musculus, 120 h, co-administered chXHA.06.275 1 ug/ml, read-out: chemotherapeutic IC50 with chXHA.06.275 (1 ug/ml).
The mark [4] stands for this setting: Mus musculus, 120 h, co-administered chXHA.06.642 1 ug/ml, read-out: chemotherapeutic IC50 with chXHA.06.642 (1 ug/ml).

`N.N.[Cl][Pt][Cl]` [Cisplatin]: the IC50 in the experiment on BaF3/PRLR cells (co-administered anti-KLH control Ab 1 ug/ml, read-out: chemotherapeutic IC50 with KLH (1 ug/ml)) is 166 nM; in the experiment on BaF3/PRLR cells (co-administered chXHA.06.275 1 ug/ml, read-out: chemotherapeutic IC50 with chXHA.06.275 (1 ug/ml)) it was 46.8 nM; in the experiment on BaF3/PRLR cells (co-administered chXHA.06.642 1 ug/ml, read-out: chemotherapeutic IC50 with chXHA.06.642 (1 ug/ml)), 27.6 nM.
As to `COc1cccc2c1C(=O)c1c(O)c3c(c(O)c1C2=O)C[C@@](O)(C(=O)CO)C[C@@H]3O[C@H]1C[C@H](N)[C@H](O)[C@H](C)O1` [Doxorubicin], the IC50 in the experiment with BaF3/PRLR cells (setting [2]) was determined as 6.44 nM; with BaF3/PRLR cells (setting [3]), 2.56 nM; with BaF3/PRLR cells (setting [4]) it was 2.14 nM.
On to `Nc1nc(F)nc2c1ncn2[C@@H]1O[C@H](CO)[C@@H](O)[C@@H]1O` [Fludarabine], for which the IC50 with BaF3/PRLR cells (setting [2]) turned out to be 105000 nM; with BaF3/PRLR cells (setting [3]) it was 93800 nM; with BaF3/PRLR cells (setting [4]), 40000 nM.
In the case of `CC(=O)O[C@H]1C(=O)[C@@]2(C)[C@H]([C@H](OC(=O)c3ccccc3)[C@]3(O)C[C@H](OC(=O)[C@H](O)[C@@H](NC(=O)c4ccccc4)c4ccccc4)C(C)=C1C3(C)C)[C@]1(OC(C)=O)CO[C@@H]1C[C@@H]2O` [Taxol], the IC50 in the experiment on BaF3/PRLR cells (setting [2]) was determined as 4.14 nM; in the experiment with BaF3/PRLR cells (setting [3]), 2.45 nM; in the experiment with BaF3/PRLR cells (setting [4]), 2.07 nM.

B1: he.06.275-1: HUMAN-ENGINEERED antibody from XHA.06.275; variable regions SEQ ID NO: 91 and SEQ ID NO: 93 by order of listing (antibody, V domains shown)
VH: DVQLQESGPGLVKPSQTLSLTCTVTGYSITSDYAWNWIRQFPGKKLEWMGYISYSGSTSYNPSLKSRITISRDTSKNQFSLQLNSVTAADTATYFCARDYGYVFDYWGQGTTLTVSS
VL: DVQITQSPSSLSASPGDRITLTCRASKNIYKYLAWYQEKPGKTNNLLIYSGSTLHSGIPSRFSGSGSGTDFTLTISSLQPEDFAMYYCQQHNDYPYTFGQGTKLEIK
Consider B1, for which, in the experiment with cynomolgus PRLR ECD, the ka is 3.6E+05 and the kd amounted to 5.7E−04. In the experiment with human PRLR ECD, this molecule showed a ka of 6.2E+05 and a kd of 3.1E−04.

B2: he.06.275-2: HUMAN-ENGINEERED antibody from XHA.06.275; variable regions SEQ ID NO: 91 and SEQ ID NO: 94 by order of listing (antibody, V domains shown)
VH: B1 VH with D1Q, T25S, K45G, T93V
VL: B1 VL
With B2, the values for the ka with cynomolgus PRLR ECD and with human PRLR ECD were 3.7E+05 and 6.0E+05, respectively. Moreover, the kd with cynomolgus PRLR ECD stood at 6.9E−04; with human PRLR ECD it was 3.7E−04.

B3: he.06.275-3: HUMAN-ENGINEERED antibody from XHA.06.275; variable regions SEQ ID NO: 92 and SEQ ID NO: 93 by order of listing (antibody, V domains shown)
VH: B1 VH
VL: B1 VL with T43A, N45K
Turning to B3, in the experiment with cynomolgus PRLR ECD, the ka was found to be 3.9E+05 and the kd turned out to be 5.0E−04. Besides, in the experiment with human PRLR ECD, the ka stood at 6.4E+05 and the kd turned out to be 2.7E−04.

B4: he.06.642-1: HUMAN-ENGINEERED antibody from XHA.06.642; variable regions SEQ ID NO: 88 and SEQ ID NO: 89 by order of listing (antibody, V domains shown)
VH: EVQLVESGGGLVQPGGSLRLSCAVSGFTFSSYGMSWVRQAPGKRLEWVATVSSGGTYTYYPDSVKGRFTISRDNSKNTLYLQMNSLRAEDTAMYYCARHRGNYYATYYYAMDYWGQGTLVTVSS
VL: DIVLTQSPDSLAVSLGERATINCKASKSVSTSGYTYMHWYQQKPGQPPKLLIYLASNRESGVPDRFSGSGSGTDFTLTISPVQAEDVATYYCQHSGELPPSFGQGTKLEIK
Regarding B4, in the experiment with cynomolgus PRLR ECD, the ka is given as 1.2E+05 and the kd stood at 3.8E−03. In the experiment with human PRLR ECD, this molecule yielded a ka of 1.7E+05 and a kd of 3.5E−04. In addition, the “agonism: induction of PRLR signaling by antibody alone” value in experiment [1] (T47D cells treated with mAb alone) is on record as “neither antibody displayed any agonistic activity”. In experiment [1] (T47D cells, 1 or 10 ug/ml mAb, then PRL 50 ng/ml 30 min), the “block of PRL-induced signaling (phospho-PRLR, phospho-Stat5)” value was “complete p-Stat5 signal abrogation”.
